{"source": "paper PMC4749968", "about": "“Nanocaged enzymes with enhanced catalytic activity and increased stability against protease digestion” (Nature Communications, 2016)", "molecules": {"B1": {"name": "HRP (Armoracia rusticana) (protein)", "chain": "QLTPTFYDNSCPNVSNIVRDTIVNELRSDPRIAASILRLHFHDCFVNGCDASILLDNTTSFRTEKDAFGNANSARGFPVIDRMKAAVESACPRTVSCADLLTIAAQQSVTLAGGPSWRVPLGRRDSLQAFLDLANANLPAPFFTLPQLKDSFRNVGLNRSSDLVALSGGHTFGKNQCRFIMDRLYNFSNTGLPDPTLNTTYLQTLRGLCPLNGNLSALVDFDLRTPTIFDNKYYVNLEEQKGLIQSDQELFSSPNATDTIPLVRSFANSTQTFFNAFVEAMDRMGNITPLTGTQGQIRLNCRVVNSNS", "notes": "44 kDa"}}, "key": {"LDH": {"test_system": "T1, LDH", "T1 construct": "gene LDHA", "details": "read-out: Free enzymes / Km; free enzyme; 1x TBS with 1 mM MgCl2, pH 7.5 (most assays; details in supplement)"}, "MDH": {"test_system": "T2, MDH", "T2 construct": "gene MDH2", "details": "read-out: Free enzymes / Km; free enzyme; 1x TBS with 1 mM MgCl2, pH 7.5 (most assays; details in supplement)"}, "[1]": {"test_system": "O=c1ccc2nc3ccc(O[C@@H]4O[C@H](CO)[C@H](O)[C@H](O)[C@H]4O)cc3oc-2c1", "experiment": "purified protein", "details": "free enzyme; kcat not calibrated; conditions in supplement"}, "[2]": {"substrate": "CCn1c(=NN=c2sc3cc(S(=O)(=O)O)ccc3n2CC)sc2cc(S(=O)(=O)O)ccc21", "experiment": "Michaelis-Menten kinetics, plate reader absorbance", "format": "biochemical, Armoracia rusticana", "details": "free enzyme, 1x TBS with 1 mM MgCl2, pH 7.5 (most assays; details in supplement)", "excerpt": "Michaelis-Menten kinetics, plate reader absorbance on HRP"}}}
{"molecule": "NC(=O)C1=CN([C@@H]2O[C@H](COP(=O)(O)OP(=O)(O)OC[C@H]3O[C@@H](n4cnc5c(N)ncnc54)[C@H](O)[C@@H]3O)[C@@H](O)[C@H]2O)C=CC1", "note": "[NADH]", "values": [{"measurement": "Km", "setting": "LDH", "result": "7.2 ± 1.3", "unit": "µM"}, {"measurement": "Km", "setting": "MDH", "result": "180 ± 50", "unit": "µM"}]}
{"molecule": "β-Gal (Escherichia coli K-12)", "values": [{"measurement": "Km", "setting": "[1]", "result": "58.7 ± 16.0", "unit": "µM"}, {"measurement": "kcat", "setting": "[1]", "result": "8.5 ± 0.6", "unit": "s⁻¹"}]}
{"molecule": "B1", "values": [{"measurement": "Km", "setting": "[2]", "result": "2,600±400 μM"}, {"measurement": "kcat", "setting": "[2]", "result": "59 ± 5", "unit": "s⁻¹"}]}
